Columns and labels:
[1] = target: fluorescein-maleimide labeled ABD2 of PLS2 (human); assay: fluorescence polarisation; stopped-flow fluorescence anisotropy kinetics, 25 °C, buffer pH 7.0; association: FM-ABD2 (50 or 100 nM) with at least 10-fold excess of the unlabeled RD-ABD1 construct (pseudo-first-order); dissociation: 25 or 50 nM FM-ABD2 bound to 50 or 100 nM RD-ABD1 construct, competed with 7.5 to 20 μM unlabeled ABD2; Kd calculated from koff and kon
[2] = target: fluorescein-maleimide labeled ABD2 of PLS2 (human); assay: fluorescence polarisation; stopped-flow fluorescence anisotropy kinetics, 25 °C, buffer pH 8.0; association: FM-ABD2 (50 or 100 nM) with at least 10-fold excess of the unlabeled RD-ABD1 construct (pseudo-first-order); dissociation: 25 or 50 nM FM-ABD2 bound to 50 or 100 nM RD-ABD1 construct, competed with 7.5 to 20 μM unlabeled ABD2; Kd calculated from koff and kon
[3] = target: fluorescein-maleimide labeled ABD2 of PLS2 (human); assay: fluorescence polarisation; equilibrium fluorescence anisotropy in a plate reader, 10 nM FM-ABD2 with increasing RD-ABD1, 60 min at 22 °C, PLS buffer pH 7.0, quadratic isotherm fit
[4] = target: fluorescein-maleimide labeled ABD2 of PLS2 (human); assay: fluorescence polarisation; stopped-flow fluorescence anisotropy kinetics, 25 °C, buffer pH 6.6; association: FM-ABD2 (50 or 100 nM) with at least 10-fold excess of unlabeled RD-ABD1 (pseudo-first-order); dissociation: 25 or 50 nM FM-ABD2 bound to 50 or 100 nM RD-ABD1, competed with 7.5 to 20 μM unlabeled ABD2; Kd calculated from koff and kon
[5] = target: fluorescein-maleimide labeled ABD2 of PLS2 (human); assay: fluorescence polarisation; stopped-flow fluorescence anisotropy kinetics, 25 °C, buffer pH 7.4; association: FM-ABD2 (50 or 100 nM) with at least 10-fold excess of unlabeled RD-ABD1 (pseudo-first-order); dissociation: 25 or 50 nM FM-ABD2 bound to 50 or 100 nM RD-ABD1, competed with 7.5 to 20 μM unlabeled ABD2; Kd calculated from koff and kon
[6] = target: fluorescein-maleimide labeled ABD2 of PLS2 (human); assay: fluorescence polarisation; equilibrium fluorescence anisotropy in a plate reader, 10 nM FM-ABD2 with increasing RD-ABD1, 60 min at 22 °C, PLS buffer pH 8.0, quadratic isotherm fit
[7] = target: fluorescein-maleimide labeled ABD2 of PLS2 (human); assay: fluorescence polarisation; stopped-flow fluorescence anisotropy kinetics, 25 °C, buffer pH 7.8; association: FM-ABD2 (50 or 100 nM) with at least 10-fold excess of unlabeled RD-ABD1 (pseudo-first-order); dissociation: 25 or 50 nM FM-ABD2 bound to 50 or 100 nM RD-ABD1, competed with 7.5 to 20 μM unlabeled ABD2; Kd calculated from koff and kon
[8] = target: Skeletal actin, filamentous (F-actin) (rabbit) (UniProt P68135)
[9] = target: PLS2 RD-ABD1-H207Y (human) (UniProt P13796); assay: fluorescence polarisation; stopped-flow fluorescence anisotropy kinetics of FM-ABD2 with RD-ABD1-H207K and RD-ABD1-H207Y, 25 °C, pH 7.0 and 8.0 (fold changes for both pH values together); dissociation with excess unlabeled ABD2
[10] = target: PLS2 RD-ABD1-H207K (human) (UniProt P13796); assay: as above
[11] = target: PLS2 RD-ABD1 (a.a. 1-385) (human) (UniProt P13796); assay: fluorescence polarisation; stopped-flow fluorescence anisotropy kinetics of FM-ABD2 with RD-ABD1, 25 °C, pH 6.6 to 8.0 (the text tells the results for the whole pH range together); dissociation with excess unlabeled ABD2
[12] = target: Skeletal actin, filamentous (F-actin) (rabbit) (UniProt P68135); assay: fluorescence polarisation; stopped-flow fluorescence anisotropy kinetics, pH 7.8, 25 °C; association of FM-ABD2 (50 or 100 nM) with at least 10-fold F-actin; koff could not be measured
[13] = target: Skeletal actin, filamentous (F-actin) (rabbit) (UniProt P68135); assay: fluorescence polarisation; stopped-flow fluorescence anisotropy kinetics, pH 7.4, 25 °C; association: FM-ABD2 (50 or 100 nM) with at least 10-fold F-actin; dissociation: from phalloidin-stabilized F-actin with excess unlabeled ABD2; Kd from koff and kon
[14] = target: PLS2 RD-ABD1 (a.a. 1-385) (human) (UniProt P13796); assay: fluorescence polarisation; stopped-flow fluorescence anisotropy, 25 °C, PLS buffer pH 7.8; association of FM-ABD2 (50 or 100 nM) with excess RD-ABD1 (kon from the slope of kobs, line forced through koff); dissociation by competition with 7.5 to 20 uM unlabeled ABD2 (koff)
[15] = target: Skeletal actin, filamentous (F-actin) (rabbit) (UniProt P68135); assay: fluorescence polarisation; equilibrium fluorescence anisotropy in a plate reader, 5 nM FM-ABD2 with F-actin stabilized with 1.0 uM phalloidin, PLS buffer pH 7.0, 22 °C, quadratic isotherm
[16] = target: Skeletal actin, filamentous (F-actin) (rabbit) (UniProt P68135); assay: fluorescence polarisation; equilibrium fluorescence anisotropy, pH 8.0, PLS buffer, 22 °C, 60 min; 5 nM FM-ABD2 with F-actin stabilized with 1.0 μM phalloidin; quadratic isotherm
[17] = target: Skeletal actin, filamentous (F-actin) (rabbit) (UniProt P68135); assay: fluorescence polarisation; equilibrium fluorescence anisotropy, pH 7.0, PLS buffer, 22 °C, 60 min; 5 nM FM-ABD2 with F-actin stabilized with 1.0 μM phalloidin; quadratic isotherm
[18] = target: PLS2 RD-ABD1 (a.a. 1-385) (human) (UniProt P13796); assay: fluorescence polarisation; stopped-flow fluorescence anisotropy, 25 °C, PLS buffer pH 7.4; association of FM-ABD2 (50 or 100 nM) with excess RD-ABD1 (kon from the slope of kobs, line forced through koff); dissociation by competition with 7.5 to 20 uM unlabeled ABD2 (koff)
[19] = target: Skeletal actin, filamentous (F-actin) (rabbit) (UniProt P68135); assay: fluorescence polarisation; stopped-flow fluorescence anisotropy kinetics, pH 7.0, 25 °C; association: FM-ABD2 (50 or 100 nM) with at least 10-fold F-actin; dissociation: from phalloidin-stabilized F-actin with excess unlabeled ABD2; Kd from koff and kon
[20] = target: PLS2 RD-ABD1 (a.a. 1-385) (human) (UniProt P13796); assay: fluorescence polarisation; stopped-flow fluorescence anisotropy, 25 °C, PLS buffer pH 6.6; association of FM-ABD2 (50 or 100 nM) with excess RD-ABD1 (kon from the slope of kobs, line forced through koff); dissociation by competition with 7.5 to 20 uM unlabeled ABD2 (koff)
[21] = target: Skeletal actin, filamentous (F-actin) (rabbit) (UniProt P68135); assay: fluorescence polarisation; stopped-flow fluorescence anisotropy kinetics, pH 6.6, 25 °C; association: FM-ABD2 (50 or 100 nM) with at least 10-fold F-actin; dissociation: from phalloidin-stabilized F-actin with excess unlabeled ABD2; Kd from koff and kon
[22] = target: PLS2 RD-ABD1 (a.a. 1-385) (human) (UniProt P13796); assay: fluorescence polarisation; equilibrium fluorescence anisotropy, pH 7.0, PLS buffer, 22 °C, 60 min; 10 nM FM-ABD2 with RD-ABD1; quadratic isotherm
[23] = target: Skeletal actin, filamentous (F-actin) (rabbit) (UniProt P68135); assay: fluorescence polarisation; stopped-flow fluorescence anisotropy kinetics, pH 8.0, 25 °C; association of FM-ABD2 (50 or 100 nM) with at least 10-fold F-actin; koff could not be measured
[24] = target: PLS2 RD-ABD1 (a.a. 1-385) (human) (UniProt P13796); assay: fluorescence polarisation; stopped-flow fluorescence anisotropy, 25 °C, PLS buffer pH 8.0; association of FM-ABD2 (50 or 100 nM) with excess RD-ABD1 (kon from the slope of kobs, line forced through koff); dissociation by competition with 7.5 to 20 uM unlabeled ABD2 (koff)
[25] = target: Skeletal actin, filamentous (F-actin) (rabbit) (UniProt P68135); assay: fluorescence polarisation; stopped-flow fluorescence anisotropy kinetics, pH 6.8, 25 °C; association: FM-ABD2 (50 or 100 nM) with at least 10-fold F-actin; dissociation: from phalloidin-stabilized F-actin with excess unlabeled ABD2; Kd from koff and kon
[26] = target: PLS2 RD-ABD1 (a.a. 1-385) (human) (UniProt P13796); assay: fluorescence polarisation; stopped-flow fluorescence anisotropy, 25 °C, PLS buffer pH 7.0; association of FM-ABD2 (50 or 100 nM) with excess RD-ABD1 (kon from the slope of kobs, line forced through koff); dissociation by competition with 7.5 to 20 uM unlabeled ABD2 (koff)
[27] = target: Skeletal actin, filamentous (F-actin) (rabbit) (UniProt P68135); assay: fluorescence polarisation; equilibrium fluorescence anisotropy in a plate reader, 5 nM FM-ABD2 with F-actin stabilized with 1.0 uM phalloidin, PLS buffer pH 8.0, 22 °C, quadratic isotherm

Sequence of PLS2 RD-ABD1 (a.a. 1–385) (P13796 1-385): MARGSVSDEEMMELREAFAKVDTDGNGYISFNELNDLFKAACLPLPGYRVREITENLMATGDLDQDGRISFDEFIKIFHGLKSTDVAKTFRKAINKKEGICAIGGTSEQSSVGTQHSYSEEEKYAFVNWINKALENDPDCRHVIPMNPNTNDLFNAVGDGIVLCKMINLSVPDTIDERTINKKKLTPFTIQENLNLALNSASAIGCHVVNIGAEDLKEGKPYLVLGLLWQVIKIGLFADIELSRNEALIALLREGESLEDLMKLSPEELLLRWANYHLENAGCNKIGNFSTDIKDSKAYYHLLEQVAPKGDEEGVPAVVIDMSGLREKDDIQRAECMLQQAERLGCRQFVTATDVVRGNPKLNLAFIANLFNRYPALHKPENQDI
Sequence of PLS2 RD-ABD1 (a.a. 1-385) (human) (P13796 1-385): as above
Sequence of PLS2-core (a.a. 83–627) (P13796 83-627): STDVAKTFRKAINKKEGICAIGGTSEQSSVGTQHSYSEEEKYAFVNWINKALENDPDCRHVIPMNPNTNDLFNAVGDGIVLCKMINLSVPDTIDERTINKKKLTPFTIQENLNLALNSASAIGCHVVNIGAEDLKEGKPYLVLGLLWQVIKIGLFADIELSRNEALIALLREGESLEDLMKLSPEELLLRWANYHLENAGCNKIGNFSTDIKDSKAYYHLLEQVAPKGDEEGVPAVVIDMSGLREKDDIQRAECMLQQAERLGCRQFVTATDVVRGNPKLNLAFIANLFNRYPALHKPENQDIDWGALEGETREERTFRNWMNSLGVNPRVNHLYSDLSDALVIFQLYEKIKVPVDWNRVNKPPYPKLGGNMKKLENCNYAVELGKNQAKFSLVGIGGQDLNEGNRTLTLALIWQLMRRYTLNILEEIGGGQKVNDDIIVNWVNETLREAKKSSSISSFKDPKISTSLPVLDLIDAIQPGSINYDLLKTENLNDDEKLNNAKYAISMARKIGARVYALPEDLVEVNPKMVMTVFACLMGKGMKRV

“PLS2 RD-ABD1-H207K (from UniProt P13796 1-385) (domain or fragment)” gave a Kd [1] of 24 nM, a koff [1] of 0.039 s⁻¹ and a kon [1] of 1.59e+06 M⁻¹ s⁻¹. The kon [2] was 1.12e+06 M⁻¹ s⁻¹.

For “PLS2 RD-ABD1 (a.a. 1–385) (from UniProt P13796 1-385) (domain or fragment)”, the Kd [1] was 5.7 nM, the koff [1] was 0.009 s⁻¹ and the kon [1] was 1.6e+06 M⁻¹ s⁻¹. It also gave a Kd [2] of 7.6 nM, a koff [2] of 0.008 s⁻¹ and a kon [2] of 1.01e+06 M⁻¹ s⁻¹. It also gave a Kd [3] of 4.5 nM, a Kd [4] of 5.1 nM and a koff [4] of 0.01 s⁻¹. It also gave a kon [4] of 1.94e+06 M⁻¹ s⁻¹, a Kd [5] of 11 nM and a koff [5] of 0.013 s⁻¹. The kon [5] was 1.24e+06 M⁻¹ s⁻¹, the Kd [6] was 8.7 nM and the Kd [7] was 7.7 nM. The koff [7] was 0.008 s⁻¹ and the kon [7] was 1.07e+06 M⁻¹ s⁻¹.

“PLS2-core (a.a. 83–627) (from UniProt P13796 83-627) (domain or fragment)” showed a fold decrease in F-actin bundling by PLS2-core (light scattering; low-speed centrifugation), pH 8.0 against pH 7.0 [8] of 2 fold.

With “fluorescein-maleimide labeled PLS2 ABD2 (FM-ABD2) (domain or fragment)” the fold change of kon against WT RD-ABD1 [9] was less than 1.2 fold, the fold decrease of koff against WT RD-ABD1 [9] was 3 to 4 fold and the fold change of kon against WT RD-ABD1 [10] was less than 1.2 fold. For the same substance, the fold increase of koff against WT RD-ABD1 [10] was 4 to 12 fold, the fold slower kon at pH 8.0 than at pH 6.6 [11] was 2 fold and the koff [11] was 0.008 s⁻¹. The kon [12] was 1.28e+06 M⁻¹ s⁻¹, the Kd [13] was 12 nM and the koff [13] was 0.0073 s⁻¹. It also gave a kon [13] of 601000 M⁻¹ s⁻¹, a koff [14] of 0.00826 s⁻¹ and a kon [14] of 1.07e+06 M⁻¹ s⁻¹. The Kd [15] was 2.88 nM, the Kd [16] was 1.7 nM and the Kd [17] was 5 nM. For the same substance, the koff [18] was 0.0135 s⁻¹, the kon [18] was 1.24e+06 M⁻¹ s⁻¹ and the Kd [19] was 9.5 nM. For the same substance, the koff [19] was 0.0057 s⁻¹, the kon [19] was 600000 M⁻¹ s⁻¹ and the koff [20] was 0.00992 s⁻¹. For the same substance, the kon [20] was 1.94e+06 M⁻¹ s⁻¹, the Kd [21] was 15 nM and the koff [21] was 0.0073 s⁻¹. It also gave a kon [21] of 479000 M⁻¹ s⁻¹, a fold stronger association at pH 7.0 than at pH 8.0 [22] of 2 fold and a kon [23] of 1.45e+06 M⁻¹ s⁻¹. For the same substance, the koff [24] was 0.0077 s⁻¹, the kon [24] was 1.01e+06 M⁻¹ s⁻¹ and the Kd [25] was 13 nM. It also gave a koff [25] of 0.0066 s⁻¹, a kon [25] of 502000 M⁻¹ s⁻¹ and a koff [26] of 0.00905 s⁻¹. For the same substance, the kon [26] was 1.6e+06 M⁻¹ s⁻¹ and the Kd [27] was 0.613 nM.

“PLS2 RD-ABD1-H207Y (from UniProt P13796 1-385) (domain or fragment)” gave a Kd [1] of 1.1 nM, a koff [1] of 0.0021 s⁻¹ and a kon [1] of 1.87e+06 M⁻¹ s⁻¹. For the same substance, the Kd [2] was 2.2 nM, the koff [2] was 0.0026 s⁻¹ and the kon [2] was 1.21e+06 M⁻¹ s⁻¹.

Reference: PMC12309418
